What was measured:
[1] = system: breast cancer cells; assay: Breast cancer cell proliferation (summary statement); type: cell-based
Protocol: Confluent cell monolayers were removed from tissue culture flasks using trypsin/EDTA. Cells (15×10^3 per well) were seeded into 96 well tissue culture plates containing the appropriate medium for each cell line. […] Cell viability was assessed by the ability of metabolically active cells to reduce 2,3-bis[2-Methoxy-4-nitro-5-sulphophenyl]-2H-tetrazolium-5-carboxyanilide inner salt (XTT) to the coloured formazan product. Absorbance was measured using a Multiskan Ascent microplate reader (Thermo Labsystem, Helsinki, Finland) at a wavelength of 450 nm and a reference wavelength of 630 nm. Each measurement was performed in triplicate. IC50s were calculated using a non-linear regression formula using GraphPad Prism v4.0 software (GraphPad Software Inc, San Diego Calif., USA).

[2] = system: MCF-7 cells; assay: In vitro hollow fiber assay; type: cell-based; conditions: MCF-7, in the presence of angiotensin II, 48 h
Protocol: (§1) Hollow Fiber procedures followed the method of Hollingshead. (Hollingshead et al Life Sci 57 131-41 (1995)).
(§2) Polyvinylidene difluoride (PVDF) hollow fibers (500 kDa cut-off, 1 mm inner diameter; Spectrum Europe B.V., Breda, Netherlands) were flushed through with 70% ethanol using a blunt 21 gauge needle and 10 ml syringe. Fibers were then immersed in 70% ethanol for 72 hours, flushed through again with 70% ethanol, then distilled water, and then autoclaved at 131° C. Finally, before loading cell suspensions, fibers were flushed through with RPMI 1640 culture medium. Cells (MCF-7, T47D, and MDA-MB-231) were introduced into fibers at densities of 2.5 to 3.0×10^6 cells/ml. Fibers were then heat-sealed at 2 cm intervals and placed in Petri dishes containing 3 ml of the cell appropriate medium.
(§3) Cell viability was measured using a modified MTT assay. Fibers were incubated in RPMI 1640 with 20% FBS containing 1 mg/ml MTT, and incubated at 37° C. under […], 5% CO2 for 4 hours. The reagent was aspirated, and 2 ml sterile filtered 2.5% protamine sulphate (0.9 g NaCl, 2.5 g protamine sulphate in 100 ml water) was added. Specimens were stored at 4° C. for a minimum of 24 hours in the dark to fix the formazan product. Fresh protamine sulphate (2.5%) was added and fibers were stored for a further 2 to 4 hours at 4° C. Each fiber was transferred to a well in a 24 well plate, cut in half and air-dried overnight, protected from light. Dimethyl sulphoxide (DMSO) (300 μl) was added to each well and the formazan product extracted. An aliquot (190 μl) from each well was transferred to a 96 well plate and absorbance read at 540 nm using a Multiskan Ascent photometric microplate reader (Thermo labsystem). Treated values were calculated as a percentage of the controls.

[3] = system: MDA-MB-231 cells; assay: In vitro hollow fiber assay; type: cell-based; conditions: MDA-MB-231, in the presence of angiotensin II, 48 h
Protocol: as §1, §2, §3

[4] = system: T47D cells; assay: In vitro hollow fiber assay; type: cell-based; conditions: in the presence of angiotensin II, 48 h
Protocol: as §1, §2, §3

[5] = Body weight, aldosterone and activity of hollow fiber mice; type: in vivo, nu/nu mice
[6] = system: MCF-7 cell xenografts; assay: In vivo xenograft assay; conditions: nu/nu mice, 13 nmol/kg
Protocol: Mice were injected s.c. on the right-flank, with 150 μl sterile PBS containing 7.5×10^6 MCF-7 cells. Tumour cells were allowed to grow for 4 weeks without hormone support, thereafter mice received weekly s.c. injections of 17β-oestradiol valerate (0.1 mg/Kg body weight), in sesame oil (Kasukabe et al., Breast Cancer Res. 7(6) R1097-110 (2005)) for a further 8 weeks. Animals were monitored daily for general health, and body weights were measured twice-weekly. Tumour size was measured 3 times per week with slide callipers, and volumes were calculated as (L×W^2)/2, where L and W are the major and minor diameters, respectively. Once tumour volumes reached 150 to 200 mm^3, mice were randomized to treatment and control groups of 8 to 10 per group. Mice were treated by subcutaneous injections of R6313/G2 in sterile PBS (0.1 ml) at doses of 0.4 mg/kg (13 nmol/kg), 0.8 mg/kg (27 nmol/Kg), and 1.36 mg/kg (45.3 nmol/kg) body weight, twice per day for seven days. Control mice received sterile PBS. […] Relative body weights (%) were calculated as (Wt/Wi)×100, where Wt is the body weight at any given time and Wi is the body weight at treatment initiation. Net tumour volume was calculated as Vt-Vi, where Vt is the tumour volume at any given time and Vi is the tumour volume at the start of treatment, and expressed as a percentage of Vi.

[7] = Body weight and mortality in xenograft assay; type: in vivo, mice; conditions: for body weight: MCF7 xenograft mice
Protocol: Mice were injected s.c. on the right-flank, with 150 μl sterile PBS containing 7.5×10^6 MCF-7 cells. Tumour cells were allowed to grow for 4 weeks without hormone support, thereafter mice received weekly s.c. injections of 17β-oestradiol valerate (0.1 mg/Kg body weight), in sesame oil (Kasukabe et al., Breast Cancer Res. 7(6) R1097-110 (2005)) for a further 8 weeks. Animals were monitored daily for general health, and body weights were measured twice-weekly. Tumour size was measured 3 times per week with slide callipers, and volumes were calculated as (L×W^2)/2, where L and W are the major and minor diameters, respectively. Once tumour volumes reached 150 to 200 mm^3, mice were randomized to treatment and control groups of 8 to 10 per group. Mice were treated by subcutaneous injections of R6313/G2 in sterile PBS (0.1 ml) at doses of 0.4 mg/kg (13 nmol/kg), 0.8 mg/kg (27 nmol/Kg), and 1.36 mg/kg (45.3 nmol/kg) body weight, twice per day for seven days. Control mice received sterile PBS. At the termination of the study, animals were sacrificed by cervical dislocation. Relative body weights (%) were calculated as (Wt/Wi)×100, where Wt is the body weight at any given time and Wi is the body weight at treatment initiation. Net tumour volume was calculated as Vt-Vi, where Vt is the tumour volume at any given time and Vi is the tumour volume at the start of treatment, and expressed as a percentage of Vi.

[8] = target: T1, antigenic peptide […] (AT1 receptor) (Rattus norvegicus, UniProt P25095); assay: Antigen ELISA during panning of scFv library; type: binding
T1 construct: 96 well plates coated with the original antigenic peptide ([…]
Protocol: The 6313/G2 mouse monoclonal antibody hybridoma was grown as previously described (Barker et at J. Mol. Endocrinol. 11 241-245 (1993)). A pool of cDNA derived from mRNA was used to obtain heavy and light chains by PCR. A linker fragment encoding (Gly4Ser)3 was used to assemble the scFv library of inserts and a phage display library was created by directionally cloning these inserts into the pCANTAB 5 E phagemid vector (Amersham Pharmacia, High Wycombe, UK). An E-tag for the expressed sequence GAPVPYPDPLEPR (SEQ ID NO: 11) was included in this vector and used in subsequent panning and purification steps. The phagemid library was then used to transform TG1 E. coli, and phagemid rescue was carried out using the M13K07 helper phage followed by several rounds of panning Positive expressing clones were identified by ELISA using 96 well plates coated with the original antigenic peptide (EDGIKRIQDD; SEQ ID NO:1) and an anti-E-tag antibody (Amersham Pharmacia) detected using an HRP-linked secondary antibody. One particular clone was taken forward for expression and purification and functional assessment on the basis of giving the highest signal in the antigen ELISA.

B1: R6313/G2: murine scFv analogue of the 6313/G2 anti-AT1 receptor monoclonal antibody variable domains, SEQ ID NO:15 (protein)
scFv: YAAQPAMAQVKLQQSGPELEKPGASVKISCKASGYSFTGYNMNWVKQSNGKSLEWIGNIDPYYGGTTYNQKFKGKATLTVDKSSSTAYMQLKSLTSEDSAVYYCAREVDYWGQGTTVTVSSGGGGSGGGGSGGGGSDIELTQSPASLAVSLGQRATISYRASKSVSTSGYSYMHWNQQKPGQPPRLLIYLVSNLESGVPARFSGSGSGTDFTLNIHPVEEEDAATYYCQHIRELTRSEGTKLEIKRAAAGAPVPY
modifications: 12D
[1]; in the absence of angiotensin II
  breast cancer cell proliferation: no effect
[1]; in the presence of up to 100 nmol angiotensin II per L
  breast cancer cell proliferation: significantly inhibits breast cancer cell proliferation
[2]
  cell survival in hollow fibers in vitro: dose dependently inhibited survival
[3]
  cell survival in hollow fibers in vitro: dose dependently inhibited survival
[4]
  cell survival in hollow fibers in vitro: dose dependently inhibited survival
[5]; 13 nmol/kg 2× per day
  animal activity: no effect
  body weight: no effect
  circulating aldosterone concentrations: no effect
[5]; hollow fiber mice, during the period of treatment
  body weights of the experimental animals: no changes
[6]
  cancer cell growth, xenograft tumours: significantly inhibited cancer cell growth
[7]; 13 nmol/kg
  other effects in xenograft mice: without other effects
[7]; 0.4 mg/kg twice per day, during the treatment period
  mortality: no mortality
[7]; 0.8 mg/kg group, by day 8, n=8
  mortality: four died by day 8
[7]; 0.8 mg/kg twice per day, during the treatment period
  mortality: no mortality
[7]; 1.36 mg/kg group, by day 8
  mortality: all died by day 8
[7]; 0.4 mg/kg (13 nmol/kg) twice per day
  body weight: no weight loss
[7]; 0.8 mg/kg (27 nmol/kg) twice per day
  body weight: no weight loss
[7]; 1.36 mg/kg (45.3 nmol/kg) twice per day
  body weight: significantly reduced
[8]
  activity of clones (preliminary studies): highest activity

— patent US8487082B2, “Synthetic scFv analogue to the 6313/G2 (anti angiotensin II type 1 receptor) monoclonal antibody variable regions” (Queen Mary & Westfield College, priority 2008, dated 2013)
